Assay results reported in article PMC4366279 (PLoS ONE, 2015).

B1: T. brucei RNA Editing Ligase 1 (TbREL1), full length wild type [modified: [35S]-methionine labelled; [35S]-methionine labelled] [Trypanosoma brucei] / KREPA2 [modified: [35S]-methionine labelled; [35S]-methionine labelled] [Trypanosoma … (parent complex)
chain 1: YMPLPNDQSDFSPYIEIDLPSESRIQSLHKSGLAAQEWVACEKVHGTNFGIYLINQGDHEVVRFAKRSGIMDPNENFFGYHILIDEFTAQIRILNDLLKQKYGLSRVGRLVLNGELFGAKYKHPLVPKSEKWCTLPNGKKFPIAGVQIQREPFPQYSPELHFFAFDIKYSVSGAEEDFVLLGYDEFVEFSSKVPNLLYARALVRGTLDECLAFDVENFMTPLPALLGLGNYPLEGNLAEGVVIRHVRRGDPAVEKHNVSTIIKLRCSSFMELKHPGKQKELKETFIDTVRSGALRRVRGNVTVISDSMLPQVEAAANDLLLNNVSDGRLSNVLSKIGREPLLSGEVSQVDVVLMLAKDALKDFLKEVDSLVLNTTLAFRKLLITNVYFESKRLVEQKWKELMQEEAAAQSEAIPPLSPAAPTKGE
chain 2: MYRRFFRSAAVKHLGTTSAQCLMRATKYPCGAMCRNASSCHPQTLGYQQRFQSTTDKKFHCSVCKKPFRLEMAAKLHLQQAHGGDGSVEAGPGPGVEASSVNVVSTPVPSPISPVERTFVDEEERRPRRMRPTPKPLHQPDRDIPAAAMEEMLGVWDKIGLNRLEGNFVHSTMVMKVFAAPPDVSEIPLYEHVAPEGENPFDSLDHMTTGTVDATYVGHDAFAEVDLVDPFVAAPDQTLNPFRAGKVRNPFTRISPTQREVVKPLQPPQPKEEPLKAPVTPFGQLPMFGQTREPSASFAAAAVSVQAAANPNEVSSPFAAAVSSSPFVGQVASPFAPAQDVAGSPFEASPCAASSPFVTAGGQETSPFAAPSTPASFGQGSLFPPMGTGAPGFTAITETEQRQQELEHGCPTCGKKFSTFEGAAMHSKSKHGIVLESKKVKDRLNRKGVPDLPAYVPSPVDLSSTSPFGTRSAIGASWAETELIPHAQCVSNITIVGRVLDVSQASENVSHVTVFVEGERSGEEETLTLCCFGEVSQKIRGTLKRNATIFASGTLRLHPVYEASNNKYYVSPVVHVSMPTGTLAVIT

Variants of: B1
Assay: co-precipitation (pull-down) with His-tag isolation beads, [35S]-methionine labeled proteins; parent: 100; read off a plot

In order of rising percent of parent:
1. chain 1 YMPLPNDQSDFSPYIEIDLPSESRIQSLHKSGLAAQEWVACEKVHGTNFGIYLINQGDHEVVRFAKRSGIMDPNENFFGYHILIDEFTAQIRILNDLLKQKYGLSRVGRLVLNGELFGAKYKHPLVPKSEKWCTLPNGKKFPIAGVQIQREPFPQYSPELHFFAFDIKYSVSGAEEDFVLLGYDEFVEFSSKVPNLLYARALVRGTLDECLAFDVENFMTPLPALLGLGNYPLEGNLAEGVVIRHVRRGDPAVEKHNVSTIIKLRCSSFMELKHPGKQKELKETFIDTVRSGALRRVRGNVTVISDSMLPQVEAAANDLLLNNVSDGRLSNVLSAIGREPLLSGEVSQVDVVLMLAKDALKDFLKEVDSLVLNTTLAFRKLLITNVYFESKRLVEQKWKELMQEEAAAQSEAIPPLSPAAPTKGE [chain 1 K335A]  ~57 % of WT
2. chain 1 YMPLPNDQSDFSPYIEIDLPSESRIQSLHKSGLAAQEWVACEKVHGTNFGIYLINQGDHEVVRFAKRSGIMDPNENFFGYHILIDEFTAQIRILNDLLKQKYGLSRVGRLVLNGELFGAKYKHPLVPKSEKWCTLPNGKKFPIAGVQIQREPFPQYSPELHFFAFDIKYSVSGAEEDFVLLGYDEFVEFSSKVPNLLYARALVRGTLDECLAFDVENFMTPLPALLGLGNYPLEGNLAEGVVIRHVRRGDPAVEKHNVSTIIKLRCSSFMELKHPGKQKELKETFIDTVRSGALRRVRGNVTVISDSMLPQVEAAANDLLLNNVSDGRLSNVLSKIGREPLLSGEVSQVDVVLMLAKDALKDFLKEVDSLVLNTTLAFRKLLITNVYFESKRLVEQKWAELMQEEAAAQSEAIPPLSPAAPTKGE [chain 1 K399A]  ~60 % of WT
3. chain 1 YMPLPNDQSDFSPYIEIDLPSESRIQSLHKSGLAAQEWVACEKVHGTNFGIYLINQGDHEVVRFAKRSGIMDPNENFFGYHILIDEFTAQIRILNDLLKQKYGLSRVGRLVLNGELFGAKYKHPLVPKSEKWCTLPNGKKFPIAGVQIQREPFPQYSPELHFFAFDIKYSVSGAEEDFVLLGYDEFVEFSSKVPNLLYARALVRGTLDECLAFDVENFMTPLPALLGLGNYPLEGNLAEGVVIRHVRRGDPAVEKHNVSTIIKLRCSSFMELKHPGKQKELKETFIDTVRSGALRRVRGNVTVISDSMLPQVEAAANDLLLNNVSDGRLSNVLSKIGREPLLSGEVSQVDVVLMLAKDALKDFLKEVDSLVLNTTLAFRKLLITNVYFESKRLVEQKAKELMQEEAAAQSEAIPPLSPAAPTKGE [chain 1 W398A]  ~66 % of WT
4. chain 1 YMPLPNDQSDFSPYIEIDLPSESRIQSLHKSGLAAQAWVACEKVHGTNFGIYLINQGDHEVVRFAKRSGIMDPNENFFGYHILIDEFTAQIRILNDLLKQKYGLSRVGRLVLNGELFGAKYKHPLVPKSEKWCTLPNGKKFPIAGVQIQREPFPQYSPELHFFAFDIKYSVSGAEEDFVLLGYDEFVEFSSKVPNLLYARALVRGTLDECLAFDVENFMTPLPALLGLGNYPLEGNLAEGVVIRHVRRGDPAVEKHNVSTIIKLRCSSFMELKHPGKQKELKETFIDTVRSGALRRVRGNVTVISDSMLPQVEAAANDLLLNNVSDGRLSNVLSKIGREPLLSGEVSQVDVVLMLAKDALKDFLKEVDSLVLNTTLAFRKLLITNVYFESKRLVEQKWKELMQEEAAAQSEAIPPLSPAAPTKGE [chain 1 E37A]  ~67 % of WT
5. chain 1 YMPLPNDQSDFSPYIEIDLPSESRIQSLHKSGLAAQEWVACEKVHGTNFGIYLINQGDHEVVRFAKRSGIMDPNENFFGYHILIDEFTAQIRILNDLLKQKYGLSRVGRLVLNGELFGAKYKHPLVPKSEKWCTLPNGKKFPIAGVQIQREPFPQYSPELHFFAFDIKYSVSGAEEDFVLLGYDEFVEFSSKVPNLLYARALVRGTLDECLAFDVENFMTPLPALLGLGNYPLEGNLAEGVVIRHVRRGDPAVEKHNVSTIIKLRCSSFMELKHPGKQKELKETFIDTVRSGALRRVRGNVTVISDSMLPQVEAAANDLLLNNVSDGRLSNVLSKIGREPLLSGEVSQVDVVLMLAKDALKDFLKAVDSLVLNTTLAFRKLLITNVYFESKRLVEQKWKELMQEEAAAQSEAIPPLSPAAPTKGE [chain 1 E366A]  ~72 % of WT
6. chain 1 YMPLPNDQSDFSPYIEIDLPSESRIQSLHKSGLAAQEWVACEKVHGTNFGIYLINQGDHEVVRFAKRSGIMDPNANFFGYHILIDEFTAQIRILNDLLKQKYGLSRVGRLVLNGELFGAKYKHPLVPKSEKWCTLPNGKKFPIAGVQIQREPFPQYSPELHFFAFDIKYSVSGAEEDFVLLGYDEFVEFSSKVPNLLYARALVRGTLDECLAFDVENFMTPLPALLGLGNYPLEGNLAEGVVIRHVRRGDPAVEKHNVSTIIKLRCSSFMELKHPGKQKELKETFIDTVRSGALRRVRGNVTVISDSMLPQVEAAANDLLLNNVSDGRLSNVLSKIGREPLLSGEVSQVDVVLMLAKDALKDFLKEVDSLVLNTTLAFRKLLITNVYFESKRLVEQKWKELMQEEAAAQSEAIPPLSPAAPTKGE [chain 1 E75A]  ~74 % of WT
7. chain 1 YMPLPNDQSDFSPYIEIDLPSESRIQSLHKSGLAAQEWVACEKVHGTNFGIYLINQGDHEVVRFAKRSGIMDPNENFFGYHILIDEFTAQIRILNDLLKQKYGLSRVGRLVLNGELFGAKYKHPLVPKSEKWCTLPNGKKFPIAGVQIQREPFPQYSPELHFFAFDIKYSVSGAEEDFVLLGYDEFVEFSSKVPNLLYARALVRGTLDECLAFDVENFMTPLPALLGLGNAPLEGNLAEGVVIRHVRRGDPAVEKHNVSTIIKLRCSSFMELKHPGKQKELKETFIDTVRSGALRRVRGNVTVISDSMLPQVEAAANDLLLNNVSDGRLSNVLSKIGREPLLSGEVSQVDVVLMLAKDALKDFLKEVDSLVLNTTLAFRKLLITNVYFESKRLVEQKWKELMQEEAAAQSEAIPPLSPAAPTKGE [chain 1 Y231A]  ~75 % of WT
8. chain 1 YMPLPNDQSDFSPYIEIDLPSESRIQSLHKSGLAAQEWVACEKVHGTNFGIYLINQGDHEVVRFAKRSGIMDPNENFFGYHILIDEFTAQIRILNDLLKQKYGLSRVGRLVLNGELFGAKYKHPLVPKSEKWCTLPNGKKFPIAGVQIQREPFPQYSPELHFFAFDIKYSVSGAEEDFVLLGYDEFVEFSSKVPNLLYARALVRGTLDECLAFDVENFMTPLPALLGLGNYPLEGNLAEGVVIRHVRRGDPAVEKHNVSTIIKLRCSSFMELKHPGKQKELKETFIDTVRSGALRRVRGNVTVISDSMLPQVEAAANDLLLNNVSDGRLSNVLSKIGREPLLSGEVSQVDVVLMLAKDALKDFLKEVDSLVLNTTLAFRALLITNVYFESKRLVEQKWKELMQEEAAAQSEAIPPLSPAAPTKGE [chain 1 K380A]  ~84 % of WT
9. chain 1 YMPLPNDQSDFSPYIEIDLPSESRIQSLHKSGLAAQEWVACEKVHGTNFGIYLINQGDHEVVRFAKRSGIMDPNENFFGYHILIDEFTAQIRILNDLLKQKYGLSRVGRLVLNGELFGAKYKHPLVPKSEKWCTLPNGKKFPIAGVQIQREPFPQYSPELHFFAFDIKYSVSGAEEDFVLLGYDEFVEFSSKVPNLLYARALVRGTLDECLAFDVENFMAPLPALLGLGNYPLEGNLAEGVVIRHVRRGDPAVEKHNVSTIIKLRCSSFMELKHPGKQKELKETFIDTVRSGALRRVRGNVTVISDSMLPQVEAAANDLLLNNVSDGRLSNVLSKIGREPLLSGEVSQVDVVLMLAKDALKDFLKEVDSLVLNTTLAFRKLLITNVYFESKRLVEQKWKELMQEEAAAQSEAIPPLSPAAPTKGE [chain 1 T220A]  ~84 % of WT
10. chain 1 YMPLPNDQSDFSPYIEIDLPSESRIQSLHKSGLAAQEWVACEKVHGTNFGIYLINQGDHEVVRFAKRSGIMDPNENFFGYHILIDEFTAQIRILNDLLKQKYGLSRVGRLVLNGELFGAKYKHPLVPKSEKWCTLPNGKKFPIAGVQIQREPFPQYSPELHFFAFDIKYSVSGAEEDFVLLGYDEFVEFSSKVPNLLYARALVRGTLDECLAFDVENFMTPLPALLGLGNYPLEGNLAEGVVIRHVRRGDPAVEKHNVSTIIKLRCSSFMELKHPGKQKELKETFIDTVRSGALRRVRGNVTVISDSMLPQVEAAANDLLLNNVSDGRLSNVLSKIGREPLLSGEVSQVDVVLMLAKDALKDFLKEVDSLVLNTTLAFRKLLITNVYFESARLVEQKWKELMQEEAAAQSEAIPPLSPAAPTKGE [chain 1 K391A]  ~88 % of WT
11. chain 1 YMPLPNDQSDFSPYIEIDLPSESRIQSLHKSGLAAQEWVACEKVHGTNFGIYLINQGDHEVVRFAKRSGIMDPNENFFGYHILIDEFTAQIRILNDLLKQKYGLSRVGRLVLNGELFGAKYKHPLVPKSEKWCTLPNGKKFPIAGVQIQREPFPQYSPELHFFAFDIKYSVSGAEEDFVLLGYDEFVEFSSKVPNLLYARALVRGTLDECLAFDVENFMTPLPALLGLGNYPLEGNLAEGVVIRHVRRGDPAVEKHNVATIIKLRCSSFMELKHPGKQKELKETFIDTVRSGALRRVRGNVTVISDSMLPQVEAAANDLLLNNVSDGRLSNVLSKIGREPLLSGEVSQVDVVLMLAKDALKDFLKEVDSLVLNTTLAFRKLLITNVYFESKRLVEQKWKELMQEEAAAQSEAIPPLSPAAPTKGE [chain 1 S259A]  ~100 % of WT
12. chain 1 YMPLPNDQSDFSPYIEIDLPSESRIQSLHKSGLAAQEWVACEKVHGTNFGIYLINQGDHEVVRFAKRSGIMDPNENFFGYHILIDEFTAQIRILNDLLKQKYGLSRVGRLVLNGELFGAKYAHPLVPKSEKWCTLPNGKKFPIAGVQIQREPFPQYSPELHFFAFDIKYSVSGAEEDFVLLGYDEFVEFSSKVPNLLYARALVRGTLDECLAFDVENFMTPLPALLGLGNYPLEGNLAEGVVIRHVRRGDPAVEKHNVSTIIKLRCSSFMELKHPGKQKELKETFIDTVRSGALRRVRGNVTVISDSMLPQVEAAANDLLLNNVSDGRLSNVLSKIGREPLLSGEVSQVDVVLMLAKDALKDFLKEVDSLVLNTTLAFRKLLITNVYFESKRLVEQKWKELMQEEAAAQSEAIPPLSPAAPTKGE [chain 1 K122A]  ~100 % of WT
13. chain 1 YMPLPNDQSDFSPYIEIDLPSESRIQSLHKSGLAAQEWVACEKVHGTNFGIYLINAGDHEVVRFAKRSGIMDPNENFFGYHILIDEFTAQIRILNDLLKQKYGLSRVGRLVLNGELFGAKYKHPLVPKSEKWCTLPNGKKFPIAGVQIQREPFPQYSPELHFFAFDIKYSVSGAEEDFVLLGYDEFVEFSSKVPNLLYARALVRGTLDECLAFDVENFMTPLPALLGLGNYPLEGNLAEGVVIRHVRRGDPAVEKHNVSTIIKLRCSSFMELKHPGKQKELKETFIDTVRSGALRRVRGNVTVISDSMLPQVEAAANDLLLNNVSDGRLSNVLSKIGREPLLSGEVSQVDVVLMLAKDALKDFLKEVDSLVLNTTLAFRKLLITNVYFESKRLVEQKWKELMQEEAAAQSEAIPPLSPAAPTKGE [chain 1 Q56A]  ~110 % of WT
